Test results published in paper PMC4258057.

How the values were obtained:
[1] = target: T1, SACE_7301 (Saccharopolyspora erythraea A226?) (UniProt A4FQY4); experiment: EMSA; conditions: 10 mM Tris pH 7.5, 5 mM MgCl2, 50 mM EDTA (so in the source), 60 mM KCl, 10 mM DTT, 10% glycerol, 150 ng probe (legend: 10 ng), 0.5-4 uM protein; on ice 10 min; 8% …
T1 sequence: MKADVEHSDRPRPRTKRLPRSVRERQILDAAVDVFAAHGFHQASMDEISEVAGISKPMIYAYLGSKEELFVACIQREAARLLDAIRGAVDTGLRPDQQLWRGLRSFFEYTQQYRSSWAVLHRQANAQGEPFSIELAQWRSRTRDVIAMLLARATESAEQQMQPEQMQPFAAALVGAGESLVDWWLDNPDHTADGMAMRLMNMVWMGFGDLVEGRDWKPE

[2] = target: T2, BldD (Saccharopolyspora erythraea A226?) (UniProt A4FBF9); experiment: EMSA; conditions: 10 mM Tris pH 7.5, 5 mM MgCl2, 50 mM EDTA (so in the source), 60 mM KCl, 10 mM DTT, 10% glycerol, 150 ng probe (legend: 10 ng), 0.5-4 uM protein; on ice 10 min; 8% …
T2 sequence: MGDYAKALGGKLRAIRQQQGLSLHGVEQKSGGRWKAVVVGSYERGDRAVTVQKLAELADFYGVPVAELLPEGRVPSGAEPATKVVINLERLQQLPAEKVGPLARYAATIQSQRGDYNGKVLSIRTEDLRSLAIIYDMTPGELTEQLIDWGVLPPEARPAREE

GCGAGTGTCCGTTCGAGTGGCGGCTTGCGCCCGATGCTAGTCGCGGTTGATCGGCGATCGCAGGTGCACGCGGTCGATCTTGACGGCTGGCGAGAGGTGCGGGGAGGATCTGACCGACGCGGTCCACACGTGGCACCGCGATGCTGTTGTGGGCTGGACAATCGTGCCGGTTGGTAGGATCCAGCG (double strand) [PermE promoter fragment]
binding [1]: binds
binding [2]: binds

GCGTCCCCCTACTCGACGACCACGCAATGGGCGAACAATATAGGAAGGATCAAGAGGTTGACATCGCCTCGTCGAGCCAACGAACCTGTGAACATCTGCATGTTGACAAGATCAACGGCGGCTACCTACTGTGGTGGCCCAGTGACGGGTTGCCGCACATCGCGCTGGGGAGATTCTTTGAATTTCGCCCGTAGCACCGACCTGGAAAGCGAGCAAATGCTCCG (double strand) [PeryAI promoter fragment]
binding [1]: binds
binding [2]: binds
